The target of experiment [1] is heme-binding globin domain of human androglobin (Adgb), Cys132 mutated to Ser (human).
For experiment [2], the target named is FL-G41C CaM (calmodulin G41C labelled with fluorescein-5-maleimide at Cys41, N-lobe) (UniProt P0DP23). Put plainly: fluorescence quenching on mixing.

As for “calmodulin (CaM) (from UniProt P0DP23 1-149) (natural protein)”, in experiment [1], the k1 (fast) of nitrite reduction, Adgb–CaM complex against Adgb alone came out at 1.8 fold and the kcat of nitrite reduction by the Adgb–CaM complex (nitrite 2.5–15 mM) came to 0.64 s⁻¹. In experiment [2], “heme-binding globin domain of human androglobin (Adgb), Cys132 mutated to Ser (domain or fragment)” had a decrease in fluorescence intensity at 531 nm of 35%.
